Among the data in paper PMC11096372 are stoichiometry N values, retold here.

The target of test [1] is Cas7b, backbone subunit of the Synechocystis sp. PCC 6714 type I-B Cascade (Synechocystis sp. PCC 6714). Kind of test: cryo-EM structure; SEC-purified Cascade with crRNA and a 59-bp ATG-PAM dsDNA target; full R-loop (higher than 3.6 Å) and partial R-loop (3.8 Å) states.
Test [2] addresses Cas11b, small subunit of the Synechocystis sp. PCC 6714 type I-B Cascade (Synechocystis sp. PCC 6714). The description is as above.

By stoichiometry N is commonly meant a count of units in the complex or per binding partner.

Consider “Cas7b, backbone subunit of the Synechocystis sp. PCC 6714 type I-B Cascade (natural protein)”, for which the stoichiometry N in test [1] was determined as 7.

Regarding “Cas11b, small subunit of the Synechocystis sp. PCC 6714 type I-B Cascade (natural protein)”, the stoichiometry N in test [2] was found to be 3.
